Laboratory results: patent US10266547B2, “Thieno[2,3-e]indole derivatives as new antitumor agents” (NERVIANO MEDICAL SCIENCES S.R.L., priority 2013, dated 2019)

Target: cathepsin B (Homo sapiens, UniProt P07858)
Test: Release of a drug moiety from a conjugate in presence of cathepsin
Format: in vitro ADME
Settings: 0.2 units cathepsin B, sodium acetate buffer pH 5.5, 1 mM Cys, 2 hours at 40° C., HPLC ESI-MS
Description: As an example, that is not intended to limit the scope of the invention, the release of a compound of formula (II) from the conjugate was performed in presence of cathepsin as reported below.
The conjugate A1 was incubated with 0.2 units of cathepsin B in sodium acetate buffer pH 5.5 and 1 mM Cys for 2 hours at 40° C.

Cc1cc2c(OC(=O)N(C)CCN(C)C(=O)OCc3ccc(NC(=O)[C@H](CCCNC(N)=O)NC(=O)[C@@H](NC(=O)CCCCCN4C(=O)CC(SC[C@H](N)C(=O)O)C4=O)C(C)C)cc3)cc3c(c2s1)[C@H](CCl)CN3C(=O)c1cc2cc(OCCN3CCCC3)ccc2[nH]1 (stereo partly shown) [A1]
release of the compound of formula (II) from the conjugate (breaking of the Z peptidic linker): Disappearance of the conjugate A1 and release of the corresponding compound of formula (II)
